Assay results published in the supplement of paper PMC9170038.

System: MS2 coat protein
Experiment: apparent KD of MS2 coat protein; designed switch direction (-1 OFF switch, 1 ON switch): -1; higher = weaker reporter binding
Procedure, shortened: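 Three titration conditions were used: no input, 200 uM small-molecule ligand, and an oligonucleotide input. In each, SNAP-549-labelled MS2 coat protein was raised from 0.7 or 1.5 nM, doubling, to 3 µM over designed RNA switches transcribed on Illumina chips by stalled E. coli RNA polymerase. Curve fits of normalised cluster fluorescence gave values whose per-design median over clusters is the apparent KD.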

[1] = input ligand: microRNA oligo, concentration not stated
[2] = Eterna round: R95, input ligand: FMN 200 uM
[3] = Eterna round: R95, input ligand: microRNA oligo, concentration not stated
[4] = Eterna round: R95, input ligand: none

Sequence | apparent KD of MS2 coat protein (input ligand: FMN 200 uM) [nM] | apparent KD of MS2 coat protein [1] [nM] | apparent KD of MS2 coat protein (input ligand: none) [nM] | apparent KD of MS2 coat protein [2] [nM] | apparent KD of MS2 coat protein [3] [nM] | apparent KD of MS2 coat protein [4] [nM]
AGUACUAACACGUCGGUGUUAGUACAAUAAGCUUGUGAAACAUGAGGAUCACCCAUGUCCUCAUAAGCUCGUCUUAU [salish99_TOv2_r3_080] (Eterna round: R96, puzzle: Sensor v3, turn-off variant 2) | 16.4 | 492 | 17.8 |  |  | 
AGUACUAACACGUCGGUGUUAGUACAAUAAGCUUGUGAAACAUGAGGAUCACCCAUGUCCUCAUAAGCUCGUCUUAU [salish99_TOv2_r3_080] (puzzle: Sensor v3, turn-off variant 2) |  |  |  | 17.4 | 575 | 15.5
AGUACUAUCGCGAAAGCGAUAGUACAAAAAGCAAGUGAAACAUGAGGAUCACCCAUGUCCUCAUUUGCUCGUCUUAU [Mat - Sensor v2 -ver2- JL mod - D89] (Eterna round: R96, puzzle: Sensor v2, turn-off variant 2) | 12.1 | 390 | 14.3 |  |  | 
AGUACUGACGCGUCGGUGUUAGUACAAUAAGCUUGUGAAACAUGAGGAUCACCCAUGUCCUCAUAAGCUCGUCUUAU [salish99_TOv2_r3_082] (puzzle: Sensor v3, turn-off variant 2) |  |  |  | 15.9 | 720 | 15.4
AGUAGAUCUACGCUUGCGUGGAUCUGCUAUGCAGGUGUUACAUGAGGAUCACCCAUGUCCUCAUUUGUUCGUCUUAU [JL turnoff v2 99.15] (puzzle: Sensor v3, turn-off variant 2) |  |  |  | 135 | 111 | 185
AGUAGGUCUACCUUGGUGGAUCUGCAUAAAGCAAGUGAUACAUGAGGAUCACCCAUGUCCUCAUUUGCUCGUCUUAU [JL turnoff v2 99.21] (puzzle: Sensor v3, turn-off variant 2) |  |  |  | 14 | 216 | 14.1
AGUAGUAGUAUCCGAUCUUACAUGAGGAUCACCCAUGUUUCUAGACGUGCACGCGAUGCUCGUCAGACUACCAGAUG [salish99_TOv1_r3_053] (puzzle: Sensor v3, turn-off variant 1) |  |  |  | 128 | 173 | 174
AGUAGUUCAGGAUAUGAUGAAGAGAACAUGAGGAUCACCCAUGUUGCAUCGUUUUUAUCAUCAGAAGGGAAUAACU [JR_Ex5_Sub085] (Eterna round: R97, puzzle: Exclusion 5) | 12.7 |  | 13.1 |  |  | 
AGUAGUUGUUUCCGUUCUUACAUGAGGAUCACCCAUGUUUCUUGUCGUGCUCGCGAUGCUCGUCAGACUACCAGAUG [salish99_TOv1_r3_059] (Eterna round: R96, puzzle: Sensor v3, turn-off variant 1) | 63 | 40.6 | 59.1 |  |  | 
AGUAGUUGUUUCCGUUCUUACAUGAGGAUCACCCAUGUUUCUUGUCGUGCUCGCGAUGCUCGUCAGACUACCAGAUG [salish99_TOv1_r3_059] (puzzle: Sensor v3, turn-off variant 1) |  |  |  | 53.4 | 65.7 | 72.8
AGUAUGUCAGGAUAUCUCGGGUAGUCCACAACAGCUACCGAAGAGAAGGGACAUGAGGAUCACCCAUGUACCAU [EX4 B.23] (Eterna round: R97, puzzle: Exclusion 4) | 19.4 |  | 30.6 |  |  | 
AGUCCACAUGAGGAUCACCCAUGUCAGGAUAUCUGCUGGAAGAGGGCAGAAAGCCAGGAGAGAAGGGACCUGGG [Usarila] (puzzle: Exclusion 1) |  |  |  |  | 34 | 
AGUCCUGGAGUUAGGAUAUGGAGUAUCACUGCACUUCAGAAGGGACUUGAGGAUCACCCAAGUAGCCGUGAGGG [salish99_bmod_ex4_r4_004] (Eterna round: R97, puzzle: Brourd's mod of Exclusion 4) | 74.3 |  | 49.2 |  |  | 
AGUCGGCGAGGAUAUACAUGAGGAUCACCCAUGUGAGAGAAUAAAGUGAGUUAGACAAGUAGAAGGCGCUGACA [JL Lego Mod 10] (Eterna round: R96, puzzle: Exclusion 3) | 356 | 40.9 | 48.1 |  |  | 
AGUCGGCGAGGAUAUACAUGAGGAUCACCCAUGUGAGAUAGUGCACGCGUACGUGUACGUAGAAGGCGCUGACA [Mat - Exclusion 3 - Mod of JL D94] (puzzle: Exclusion 3) |  |  |  |  | 11.1 | 
AGUCUGCGAGGAUAUACAUGAGGAUCACCCAUGUGCGAGAUACUAGUGAGGUCGAUUGGUAGAAGGCGCGGACA [Mat - Exclusion 3 - Mod of JL D86] (puzzle: Exclusion 3) |  |  |  |  | 84.5 | 
AGUGCGUAUGUGAGGAUAUGCUGGUCCUUGGAUCGGCAGAAGGUACAUGAGGAUCACCCAUGUGGUGUCGUUCU [salish99_Bmod_ex4_104] (puzzle: Brourd's mod of Exclusion 4) |  |  |  | 94 | 409 | 261

Sequence | apparent KD of MS2 coat protein (input ligand: FMN 200 uM) [nM] | apparent KD of MS2 coat protein [1] [nM] | apparent KD of MS2 coat protein (input ligand: none) [nM] | apparent KD of MS2 coat protein [2] [nM] | apparent KD of MS2 coat protein [3] [nM] | apparent KD of MS2 coat protein [4] [nM]
AGUGGGCGCGUAGGAUAUGAGGAUCACCCAUAGAAGGAUAUCGAAAGAGAAGGUCUGAGGAUUACCCAGAAGGACGGGUUUGUA [pwkr exNG2 2xF5 2xFMN.15] (Eterna round: R96, puzzle: Exclusion NG 2) | 925 | 278 | 232 |  |  | 
AGUGGGCUAGGAUAUCGAUGAACUCACAUGAGGAUCACCCAUGUGUCUUUGGUGGGCGCACGAGAAGGAGUAAGAU [Tiorat] (puzzle: Exclusion 5) |  |  |  |  | 36.5 | 
AGUGUCAAGCAAGCAAGGAACAUGAGGAUCACCCAUGUCGUACAAUAAACGCCCGCUCGUCGCACGUCGUGCGUAGA [Eternabot (Original) Solution 18] (Eterna round: R97, puzzle: Sensor, turn-off variant 1) | 34.3 |  | 27.2 |  |  | 
AGUGUGAUAGGAUAUACAUGAGGAUCACCCAUGUGAAUGGUAAUGUGUCCAAGAUCAGGUAGAAGGGUCGGGUU [Eternabot (L1) Solution 56] (Eterna round: R97, puzzle: Exclusion 3) | 83.6 |  | 101 |  |  | 
AGUUAUUCAGGAUAUGGUGUGUUAUACAUGAGGAUCACCCAUGUGGAUCCUGGUUAGGCCUCAGAAGGGAAUGUUA [salish99_ex5_r4_126] (Eterna round: R97, puzzle: Exclusion 5) | 412 |  | 435 |  |  | 
AGUUGGCGAGGAUAUACAUGAGGAUCACCCAUGUGAGAGAUACGAGUGAGGUCGAUUAGUAGAAGGCGCUGACA [Mat X3R4 m14] (Eterna round: R97, puzzle: Exclusion 3) | 984 |  | 161 |  |  | 
AGUUGGCGAGGAUAUACAUGAGGAUCACCCAUGUGAGAGAUACUGGUGAGGUCGAUUAGUAGAAGGCGCUGACA [Mat X3R4 m15] (Eterna round: R97, puzzle: Exclusion 3) | 137 |  | 654 |  |  | 
AGUUGGCGAGGAUAUACAUGAGGAUCACCCAUGUGAUAUUAAAGUGAGGAAAUGAAAAGUAGAAGGCGCUGACA [Mod of Mat 24 - Jieux - Exclusion 3] (Eterna round: R97, puzzle: Exclusion 3) | 662 |  | 47.3 |  |  | 
AUAAAACAUGAGGAUCACCCAUGUCAGGAUAUACGAUUCCACCCUAACUGCGUGGAACGUAGAAGGGACAUAGG [Exclusion 1 (MOD6 Esqu)] (Eterna round: R97, puzzle: Exclusion 1) | 62.7 |  | 76.4 |  |  | 
AUAAACCUAGGAUAUACAUGAGGAUCACCCAUGUAAGGGCAAUGCCCAUGCUCCUCAUGUAGAAGGAGGAGCAG [Xezausa] (puzzle: Exclusion 3) |  |  |  |  | 20.2 | 
AUAAAGUCAGGAUAUCGAAGUGAGUGGUGGAGGGUAAGGUACGAGAAGGGACAUGAGGAUCACCCAUGUAGGAA [JR_Exclusion4)Sub005] (puzzle: Exclusion 4) |  |  |  | 24 | 27.2 | 29.5
AUAAAUAACGUUAGGAUAUAUUUUGUGACAUCAGGAUAGAAGGAACAUGAGGAUCACCCAUGUGAUUCUGUGAA [Maenin] (puzzle: Brourd's mod of Exclusion 4) |  |  |  | 46.6 | 37.2 | 40.3
AUAAAUCAUGUAGGAUAUGCGUGGCGAAGCUAUGCAGAAGGACAUGAGGAUCACCCAUGUGCUUGCGUCUGAGUACAGAUGCUA [Mat - Exclusion NG 1 - Mod of JL - D6] (Eterna round: R96, puzzle: Exclusion NG 1) | 264 | 77.1 | 91.8 |  |  | 
AUAAAUCAUGUAGGAUAUGCGUGGCGAAGCUAUGCAGAAGGACAUGAGGAUCACCCAUGUUCUAGCGUCUGAGUACAGAUGCAA [Mat - Exclusion NG 1 - Mod of JL - D3] (Eterna round: R96, puzzle: Exclusion NG 1) | 72.5 | 18.5 | 22.9 |  |  | 
AUAACGUGGGCGUCCCACGGCAAGCUUUUUGCUCGUUUGACAUGAGGAUCACCCAUGUAGCUGCGGGAUCCCUAUGA [Anatsobe] (puzzle: Sensor v3, turn-off variant 2) |  |  |  | 17.6 | 22.5 | 15.2
AUAAGUAUAUAGGAUAUCUAGCUGGUAACAGCUAGAGAAGGAUGUACAUGAGGAUCACCCAUGUAAAUCGAUCA [Ex6/10-A2] (Eterna round: R97, puzzle: Exclusion 6) | 18.5 |  | 18.1 |  |  | 
